In paper PMC2148136 one finds units of β-galactosidase activity (units of β-galactosidase activity) data, which are given here for 1 substance.

The target of the test is Gin4p kinase domain (codons 1-294), DBD fusion (S. cerevisiae) (UniProt Q12263). Kind of test: two-hybrid.
Chain of UniProt Q12263 (Q12263 1-294): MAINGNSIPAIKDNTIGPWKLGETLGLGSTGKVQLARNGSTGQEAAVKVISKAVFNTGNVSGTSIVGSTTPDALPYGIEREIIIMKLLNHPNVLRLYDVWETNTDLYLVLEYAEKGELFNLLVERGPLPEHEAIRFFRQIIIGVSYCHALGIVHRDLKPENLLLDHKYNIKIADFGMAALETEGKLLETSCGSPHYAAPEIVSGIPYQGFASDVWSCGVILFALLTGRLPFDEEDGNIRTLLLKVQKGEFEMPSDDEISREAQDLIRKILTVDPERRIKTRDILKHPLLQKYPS

In turn, “COOH-terminal region of Cdc3p (the 101 COOH-terminal amino acids), AD fusion (domain or fragment)” gave a units of β-galactosidase activity (units of β-galactosidase activity) of 727.
